Each block holds one binder with its values, some of them ahead of it. Where no end group is shown, it is not given here.
Assays:
PKC-δ (purified isoform) [1] = target: T1, PKC-δ (purified isoform) (Homo sapiens (Human), UniProt Q05655 1-676); assay: competitive ELISA on purified PKC-δ vs anti-PKC-δ Ab; PRE 50 µM
T1 construct: also called PKC-delta; PKCdelta
Protocol: (§1) Greiner 96 well ELISA plates were coated with the appropriate PKC isoform diluted in PBSN (PBS with Calcium/Magnesium+0.05% Sodium azide w/w). 50 μL/well at 250 ng/mL was used. Control wells contained PBSN only. Plates were incubated overnight at 4° C.
(§2) The plates were washed 3 times with 200 μL of dH₂O per well, then 100 μL of blocking solution was added per well and the plate incubated for 1 h at 37° C. The washing steps with dH₂O were repeated and 50 μL of the appropriate PRE solution (PRE stock solution [20 mM in DMSO] diluted in PBSN) was added and the plate incubated for 1 h at room temperature.
(§3) 50 μL of 1:1000 dilution of Alkaline Phosphatase (AP) conjugated antibody (anti-rabbit for all except zeta, which was anti-goat) was then added and the plate incubated for 1 h at room temperature. Washing with dH₂O was then repeated. Finally, 100 μL of pNPP solution in pNPP buffer (2 mM MgCl₂, 100 mM Sodium bicarbonate in water, pH 9.8) was added to all wells and incubated for 8 minutes for α, βI, βII ε, and ζ, or for 15-20 mins for […] (until sufficient coloration is observed). The reaction was stopped by addition of Stop solution (2N NaOH) and the absorbance at 405 nm was read on a Galaxy Plate reader.

[2] = target: T2, PKC-α (endogenous, human cell lysates and cells) (human, UniProt P17252 2-672); assay: anti-PKC-α immunofluorescence, V5E-transfected IMR-32 cells loaded with PRE (label on PKC-α and V5E); control with endocytosis reagent 113
T2 construct: Endogenous protein of human cell lysates, on Western blot membranes (denatured) or in fixed cells; also called PKC-alpha; PKC-A
Source text: Neuroblastoma cells from the IMR-32 cell line were stably transfected with a vector containing the V5E sequence of PKC-α as outlined above in Example 13. The V5E sequence is part of the antigenic amino acid sequence that is used to raise the commercially available anti-PKC-α isoform-specific antibody.
The peptides PRE 1, 2, 3, 4, 5, 6, 7, 8, 9, 10, 11, 12 and 13 (see Table 3) were incorporated into the transfected IMR-32 cells via pinocytic endocytosis (Molecular Probes) according to the supplier's recommendations. Following fixation and permeabilization, PKC-α was detected using an Alexa fluor secondary antibody (as described above in Example 8).

PKC-δ (purified isoform) [3] = target: T1, PKC-δ (purified isoform); assay: competitive ELISA on purified PKC-δ vs anti-PKC-δ Ab; PRE 200 µM
Protocol: as §1, §2, §3

PKC-δ (purified isoform) [4] = target: T1, PKC-δ (purified isoform); assay: competitive ELISA on purified PKC-δ vs anti-PKC-δ Ab; PRE 100 µM
Protocol: as §1, §2, §3

[5] = target: T3, PKC-βII (purified isoform) (Homo sapiens (Human), UniProt P05771 2-621); assay: competitive ELISA on purified PKC-βII vs anti-PKC-βII Ab; PRE 50 µM
T3 construct: also called PKC-beta II
Protocol: as §1, §2, §3

[6] = target: T3, PKC-βII (purified isoform); assay: competitive ELISA on purified PKC-βII vs anti-PKC-βII Ab; PRE 100 µM
Protocol: as §1, §2, §3

[7] = target: T3, PKC-βII (purified isoform); assay: competitive ELISA on purified PKC-βII vs anti-PKC-βII Ab; PRE 200 µM
Protocol: as §1, §2, §3

PKC-ζ (purified isoform) [8] = target: T4, PKC-ζ (purified isoform) (Homo sapiens (Human), UniProt Q05513 1-592); assay: summary grade, purified isoform ELISA
T4 construct: also called PKC-zeta; PKCzeta
T4 sequence: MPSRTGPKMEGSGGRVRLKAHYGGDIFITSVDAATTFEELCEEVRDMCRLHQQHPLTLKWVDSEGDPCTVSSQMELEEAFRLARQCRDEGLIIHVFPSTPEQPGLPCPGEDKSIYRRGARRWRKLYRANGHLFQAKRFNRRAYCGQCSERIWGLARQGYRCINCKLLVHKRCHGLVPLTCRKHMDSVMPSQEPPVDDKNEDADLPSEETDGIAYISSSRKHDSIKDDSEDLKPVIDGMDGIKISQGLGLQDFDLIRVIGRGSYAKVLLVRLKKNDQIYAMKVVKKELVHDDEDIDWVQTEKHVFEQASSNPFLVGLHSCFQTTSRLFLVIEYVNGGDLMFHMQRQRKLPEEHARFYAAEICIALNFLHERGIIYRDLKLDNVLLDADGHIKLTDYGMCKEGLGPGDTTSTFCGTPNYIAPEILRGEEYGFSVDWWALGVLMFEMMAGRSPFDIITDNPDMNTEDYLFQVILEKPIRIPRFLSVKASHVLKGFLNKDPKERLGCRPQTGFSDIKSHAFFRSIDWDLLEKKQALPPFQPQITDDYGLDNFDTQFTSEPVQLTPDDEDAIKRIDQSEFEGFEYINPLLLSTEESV

PKC-ζ (purified isoform) [9] = target: T4, PKC-ζ (purified isoform); assay: competitive ELISA on purified PKC-ζ vs anti-PKC-ζ Ab; PRE 50 µM
Protocol: as §1, §2, §3

PKC-ζ (purified isoform) [10] = target: T4, PKC-ζ (purified isoform); assay: competitive ELISA on purified PKC-ζ vs anti-PKC-ζ Ab; PRE 100 µM
Protocol: as §1, §2, §3

PKC-ζ (purified isoform) [11] = target: T4, PKC-ζ (purified isoform); assay: competitive ELISA on purified PKC-ζ vs anti-PKC-ζ Ab; PRE 200 µM
Protocol: as §1, §2, §3

[12] = target: T5, PKC-ε (endogenous, human cell extracts) (human, UniProt Q02156 1-737); assay: Protocol B blot competition, IMR-32 extract, competitor anti-PKC-ε Ab, Band 1; PRE 20 µg
T5 construct: Two bands on the blot, said to be alternate splicing variants; also called PKC-epsilon; PKC-ε Band 1
T5 sequence (looked up): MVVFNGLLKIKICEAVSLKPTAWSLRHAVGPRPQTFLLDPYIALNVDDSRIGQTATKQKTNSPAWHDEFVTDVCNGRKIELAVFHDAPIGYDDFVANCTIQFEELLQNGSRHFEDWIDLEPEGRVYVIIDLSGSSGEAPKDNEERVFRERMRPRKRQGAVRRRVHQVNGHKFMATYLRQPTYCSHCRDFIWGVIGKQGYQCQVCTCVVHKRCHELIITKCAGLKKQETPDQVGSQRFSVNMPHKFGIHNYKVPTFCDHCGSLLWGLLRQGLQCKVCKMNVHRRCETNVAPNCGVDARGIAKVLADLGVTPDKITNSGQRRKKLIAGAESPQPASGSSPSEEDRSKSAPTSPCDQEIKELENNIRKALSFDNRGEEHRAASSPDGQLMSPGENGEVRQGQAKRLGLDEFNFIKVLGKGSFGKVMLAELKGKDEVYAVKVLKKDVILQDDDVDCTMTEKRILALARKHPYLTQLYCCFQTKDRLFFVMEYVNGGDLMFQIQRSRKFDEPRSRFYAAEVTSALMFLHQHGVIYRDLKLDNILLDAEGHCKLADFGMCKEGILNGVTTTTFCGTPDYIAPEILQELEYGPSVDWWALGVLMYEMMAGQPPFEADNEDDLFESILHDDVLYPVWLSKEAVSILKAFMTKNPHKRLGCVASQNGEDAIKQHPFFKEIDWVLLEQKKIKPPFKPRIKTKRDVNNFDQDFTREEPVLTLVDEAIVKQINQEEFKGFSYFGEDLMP
Protocol: (§4) The ability of the peptides PRE 2 and PRE 3 (see Table 3) to interfere with the binding of a PKC-α-specific polyclonal antibody (Santa Cruz Biotechnology, Inc.) to PKC-α was determined using a modified version of the protocol outlined above in which the test peptide was added directly to the cell extract prior to electrophoresis at a concentration of either 5× or 15× the concentration of the protein applied to each well of the gel for the Western blots (20 μg).
(§5) Peptides PRE 2, PRE 3 and PRE 4 (see Table 3) were tested for their ability to interfere with the binding of isoform-specific polyclonal antibodies (Santa Cruz Biotechnology, Inc.) to PKC-ε using the general protocol described in Example 3. Two bands, representing alternate splicing variants of PKC-ε, were identified on the Western blot using this anti-PKC-ε antibody.

[13] = target: T5, PKC-ε (endogenous, human cell extracts); assay: Protocol B blot competition, IMR-32 extract, competitor anti-PKC-ε Ab, Band 2; PRE 20 µg
Protocol: as §4, §5

[14] = target: T5, PKC-ε (endogenous, human cell extracts); assay: Protocol B blot competition, IMR-32 extract, competitor anti-PKC-ε Ab, Band 1; PRE 100 µg
Protocol: as §4, §5

[15] = target: T5, PKC-ε (endogenous, human cell extracts); assay: Protocol B blot competition, IMR-32 extract, competitor anti-PKC-ε Ab, Band 2; PRE 100 µg
Protocol: as §4, §5

[16] = target: T5, PKC-ε (endogenous, human cell extracts); assay: Protocol B blot competition, IMR-32 extract, competitor anti-PKC-ε Ab, Band 1; PRE 50 µg
Protocol: as §4, §5

[17] = target: T5, PKC-ε (endogenous, human cell extracts); assay: Protocol B blot competition, IMR-32 extract, competitor anti-PKC-ε Ab, Band 2; PRE 50 µg
Protocol: as §4, §5

T1 sequence (Q05655 whole entry, stated change not applied, canonical isoform): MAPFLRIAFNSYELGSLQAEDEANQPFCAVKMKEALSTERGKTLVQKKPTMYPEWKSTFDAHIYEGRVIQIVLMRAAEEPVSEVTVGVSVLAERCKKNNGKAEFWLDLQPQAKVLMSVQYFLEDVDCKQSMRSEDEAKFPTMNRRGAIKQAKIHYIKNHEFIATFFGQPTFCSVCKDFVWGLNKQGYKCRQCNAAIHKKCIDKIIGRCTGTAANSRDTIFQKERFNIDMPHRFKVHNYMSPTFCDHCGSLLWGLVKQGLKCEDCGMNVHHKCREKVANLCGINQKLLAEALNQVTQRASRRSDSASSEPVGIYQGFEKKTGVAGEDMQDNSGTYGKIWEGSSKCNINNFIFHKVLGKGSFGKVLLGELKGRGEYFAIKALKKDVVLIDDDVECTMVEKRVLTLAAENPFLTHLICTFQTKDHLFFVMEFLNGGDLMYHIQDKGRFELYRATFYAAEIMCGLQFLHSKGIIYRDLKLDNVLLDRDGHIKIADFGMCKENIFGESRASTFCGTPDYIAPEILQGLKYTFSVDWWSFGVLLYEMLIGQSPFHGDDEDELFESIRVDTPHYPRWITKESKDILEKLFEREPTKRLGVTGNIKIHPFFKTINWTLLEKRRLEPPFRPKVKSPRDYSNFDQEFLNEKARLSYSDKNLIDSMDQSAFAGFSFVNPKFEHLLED
T3 sequence (P05771 other isoform, or with tags, fused parts or gaps limits assumed): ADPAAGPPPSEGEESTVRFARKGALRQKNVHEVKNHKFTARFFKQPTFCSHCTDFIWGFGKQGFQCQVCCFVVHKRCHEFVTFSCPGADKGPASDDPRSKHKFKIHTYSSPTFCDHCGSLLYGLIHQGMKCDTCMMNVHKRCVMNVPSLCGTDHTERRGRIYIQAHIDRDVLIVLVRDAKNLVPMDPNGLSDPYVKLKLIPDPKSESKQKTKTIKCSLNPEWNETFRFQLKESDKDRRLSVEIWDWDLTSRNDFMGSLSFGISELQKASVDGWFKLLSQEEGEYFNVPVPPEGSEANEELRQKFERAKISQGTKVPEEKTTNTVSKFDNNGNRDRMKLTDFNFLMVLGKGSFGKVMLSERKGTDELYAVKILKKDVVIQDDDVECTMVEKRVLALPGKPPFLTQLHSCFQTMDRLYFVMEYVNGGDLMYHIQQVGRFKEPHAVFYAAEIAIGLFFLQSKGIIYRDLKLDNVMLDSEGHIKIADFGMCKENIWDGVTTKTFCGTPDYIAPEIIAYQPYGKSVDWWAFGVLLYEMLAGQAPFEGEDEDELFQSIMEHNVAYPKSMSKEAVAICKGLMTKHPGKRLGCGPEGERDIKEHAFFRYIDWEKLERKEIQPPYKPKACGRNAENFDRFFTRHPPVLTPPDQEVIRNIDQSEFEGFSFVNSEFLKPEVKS

- binding capacity (%) (PKC-δ (purified isoform) [1]): 0.2%
- Relative Fluorescence Intensity [2]: 124
- binding capacity (%) (PKC-δ (purified isoform) [3]): 4.31%
- binding capacity (%) (PKC-δ (purified isoform) [4]): 0%
B1: PRE 5 (peptide)
peptide: Ac-AKGIQEVKGGKDAQNLIGISI-NH2
notes: Synthetic peptide; also called peptide PRE 5

- Relative Fluorescence Intensity [2]: 122
- binding capacity (%) [5]: 0%
- binding capacity (%) [6]: 0%
- binding capacity (%) [7]: 0%
B2: PRE 10 (peptide)
peptide: Ac-ISIGILNQADK-NH2
notes: Synthetic peptide; also called peptide PRE 10

- binding result (PKC-ζ (purified isoform) [8]): no binding (tested: 200 µM)
- binding capacity (%) (PKC-ζ (purified isoform) [9]): 0%
- binding capacity (%) (PKC-ζ (purified isoform) [10]): 0%
- binding capacity (%) (PKC-δ (purified isoform) [1]): 6.96%
- Relative Fluorescence Intensity [2]: 81
- binding capacity (%) (PKC-δ (purified isoform) [3]): 6.68%
- binding capacity (%) (PKC-ζ (purified isoform) [11]): 0%
- binding capacity (%) (PKC-δ (purified isoform) [4]): 3.38%
B3: PRE 8 (peptide)
peptide: ILEDKGGDAQNLIGISI
notes: Synthetic peptide; termini given free; also called peptide PRE 8

- band intensity [12]: 323
- inhibition (%) [12]: 23.4%
- relative intensity (%) [12]: 76.6%
- band intensity [13]: 160
- inhibition (%) [13]: 38.6%
- relative intensity (%) [13]: 61.4%
- band intensity [14]: 0
- inhibition (%) [14]: 100%
- relative intensity (%) [14]: 0%
- band intensity [15]: 0
- inhibition (%) [15]: 100%
- relative intensity (%) [15]: 0%
- band intensity [16]: 0
- inhibition (%) [16]: 100%
- relative intensity (%) [16]: 0%
- band intensity [17]: 0
- inhibition (%) [17]: 100%
- relative intensity (%) [17]: 0%
B4: PRE 2 (peptide)
peptide: KDAQNLIGISL-NH2
notes: Synthetic peptide; also called peptide PRE 2

Reference: patent US20100041597A1 (published 2010)
